According to patent US10087225B2, “Formulation of MK2 inhibitor peptides” (MOERAE MATRIX, INC., priority 2015, dated 2018):

What was measured:
Test in all cases: Kinase Profiling Assay
Format in all cases: biochemical
Flt4(h) = Flt4(h) (Homo sapiens, UniProt P35916)
FGFR2(N549H)(h) = FGFR2(N549H)(h) (Homo sapiens, UniProt P21802, N549H)
MST2(h) = molecular target: T1, MST2(h) (Homo sapiens, UniProt Q13188)
T1 sequence (Q13188 1-491): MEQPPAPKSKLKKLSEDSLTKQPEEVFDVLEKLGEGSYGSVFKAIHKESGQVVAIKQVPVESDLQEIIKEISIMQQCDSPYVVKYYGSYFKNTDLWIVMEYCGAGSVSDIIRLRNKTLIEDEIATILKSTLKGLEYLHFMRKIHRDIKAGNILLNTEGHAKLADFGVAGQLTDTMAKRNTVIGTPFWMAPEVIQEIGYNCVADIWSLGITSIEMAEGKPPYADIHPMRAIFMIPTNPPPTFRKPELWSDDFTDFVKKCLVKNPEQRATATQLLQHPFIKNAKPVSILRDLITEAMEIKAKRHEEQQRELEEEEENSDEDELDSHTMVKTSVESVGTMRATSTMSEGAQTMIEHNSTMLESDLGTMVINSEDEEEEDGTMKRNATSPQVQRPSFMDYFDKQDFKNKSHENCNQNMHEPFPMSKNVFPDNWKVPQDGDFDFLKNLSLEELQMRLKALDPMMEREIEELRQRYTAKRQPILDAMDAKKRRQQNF

Snk(h) = Snk(h) (Homo sapiens, UniProt Q9NYY3)
Sequence of Snk(h) (Q9NYY3 whole entry): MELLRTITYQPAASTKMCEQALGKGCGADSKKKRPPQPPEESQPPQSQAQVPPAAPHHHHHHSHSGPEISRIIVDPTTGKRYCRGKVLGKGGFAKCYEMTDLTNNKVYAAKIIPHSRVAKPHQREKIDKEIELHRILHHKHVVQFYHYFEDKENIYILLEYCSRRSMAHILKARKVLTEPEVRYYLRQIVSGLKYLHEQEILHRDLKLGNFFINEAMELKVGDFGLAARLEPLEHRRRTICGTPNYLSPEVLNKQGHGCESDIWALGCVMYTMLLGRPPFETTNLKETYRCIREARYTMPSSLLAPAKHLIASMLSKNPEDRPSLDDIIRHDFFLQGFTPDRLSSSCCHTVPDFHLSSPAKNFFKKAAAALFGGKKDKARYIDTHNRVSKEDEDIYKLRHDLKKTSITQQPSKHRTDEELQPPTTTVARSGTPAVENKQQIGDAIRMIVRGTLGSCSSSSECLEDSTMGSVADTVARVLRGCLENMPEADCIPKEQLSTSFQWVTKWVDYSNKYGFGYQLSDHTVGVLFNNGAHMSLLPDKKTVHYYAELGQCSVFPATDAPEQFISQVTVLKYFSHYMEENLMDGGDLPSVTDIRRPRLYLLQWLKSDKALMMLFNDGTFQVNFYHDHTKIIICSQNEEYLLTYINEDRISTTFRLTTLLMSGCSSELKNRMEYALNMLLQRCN

SAPK3(h) = molecular target: T2, SAPK3(h) (Homo sapiens, UniProt P53778); details: 100 μM
T2 sequence (P53778 1-367): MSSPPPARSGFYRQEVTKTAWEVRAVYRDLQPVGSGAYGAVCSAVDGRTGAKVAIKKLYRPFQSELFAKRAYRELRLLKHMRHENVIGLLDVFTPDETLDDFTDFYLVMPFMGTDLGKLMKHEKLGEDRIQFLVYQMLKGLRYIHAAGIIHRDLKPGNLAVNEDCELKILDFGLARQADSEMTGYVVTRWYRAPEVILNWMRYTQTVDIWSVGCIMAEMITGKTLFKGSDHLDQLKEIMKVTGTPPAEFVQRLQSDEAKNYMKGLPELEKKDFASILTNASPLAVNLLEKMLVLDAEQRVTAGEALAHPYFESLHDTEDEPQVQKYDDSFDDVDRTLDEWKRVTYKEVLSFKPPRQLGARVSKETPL

Hck(h) activated = Hck(h) activated (Homo sapiens, UniProt P08631); details: 100 μM
Sequence of Hck(h) activated (P08631 whole entry): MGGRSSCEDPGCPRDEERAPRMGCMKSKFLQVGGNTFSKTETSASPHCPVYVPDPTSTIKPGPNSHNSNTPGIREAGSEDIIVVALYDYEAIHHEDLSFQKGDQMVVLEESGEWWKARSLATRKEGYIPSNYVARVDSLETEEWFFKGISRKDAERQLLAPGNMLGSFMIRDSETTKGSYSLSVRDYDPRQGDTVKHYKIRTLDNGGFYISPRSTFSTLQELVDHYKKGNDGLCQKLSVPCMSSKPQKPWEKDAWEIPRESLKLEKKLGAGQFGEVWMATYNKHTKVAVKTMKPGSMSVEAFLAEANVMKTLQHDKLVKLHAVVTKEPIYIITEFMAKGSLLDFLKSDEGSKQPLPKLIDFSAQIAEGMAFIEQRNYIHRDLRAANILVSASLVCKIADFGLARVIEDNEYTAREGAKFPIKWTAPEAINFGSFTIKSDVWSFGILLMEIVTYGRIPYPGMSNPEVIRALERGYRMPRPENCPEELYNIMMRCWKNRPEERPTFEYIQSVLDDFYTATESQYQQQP

CDK5/p25(h) = CDK5/p25(h) (Homo sapiens, UniProt Q00535); details: 100 μM
Sequence of CDK5/p25(h) (Q00535 whole entry): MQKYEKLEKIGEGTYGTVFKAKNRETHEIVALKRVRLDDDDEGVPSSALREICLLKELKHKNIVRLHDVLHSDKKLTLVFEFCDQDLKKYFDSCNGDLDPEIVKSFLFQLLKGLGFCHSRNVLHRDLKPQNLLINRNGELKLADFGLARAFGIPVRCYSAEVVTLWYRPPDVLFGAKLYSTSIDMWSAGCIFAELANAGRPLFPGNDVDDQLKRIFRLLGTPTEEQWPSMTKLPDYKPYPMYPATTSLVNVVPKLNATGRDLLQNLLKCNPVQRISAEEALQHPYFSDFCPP
Sequence of CDK5/p25(h) (Q15078 99-307 partner limits assumed): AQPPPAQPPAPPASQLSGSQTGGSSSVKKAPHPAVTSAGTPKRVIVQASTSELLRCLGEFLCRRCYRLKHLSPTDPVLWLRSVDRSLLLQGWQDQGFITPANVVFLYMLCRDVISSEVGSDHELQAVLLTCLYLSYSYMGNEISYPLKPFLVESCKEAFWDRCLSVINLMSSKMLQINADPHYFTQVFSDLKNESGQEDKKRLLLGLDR

FAK(h) = FAK(h) (Homo sapiens, UniProt Q05397); details: 100 μM
CDK6/cyclinD3(h) = CDK6/cyclinD3(h) (Homo sapiens, UniProt Q00534); details: 100 μM
Sequence of CDK6/cyclinD3(h) (Q00534 whole entry): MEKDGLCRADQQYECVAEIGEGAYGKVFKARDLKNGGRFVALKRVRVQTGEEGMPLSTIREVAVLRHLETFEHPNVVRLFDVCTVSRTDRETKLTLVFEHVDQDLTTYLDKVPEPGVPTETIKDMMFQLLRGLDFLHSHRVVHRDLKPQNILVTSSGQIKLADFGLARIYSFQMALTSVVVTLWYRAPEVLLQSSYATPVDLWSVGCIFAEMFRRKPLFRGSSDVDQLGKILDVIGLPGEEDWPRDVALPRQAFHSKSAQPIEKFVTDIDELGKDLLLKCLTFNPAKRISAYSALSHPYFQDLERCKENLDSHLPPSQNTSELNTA
Sequence of CDK6/cyclinD3(h) (P30281 whole entry partner): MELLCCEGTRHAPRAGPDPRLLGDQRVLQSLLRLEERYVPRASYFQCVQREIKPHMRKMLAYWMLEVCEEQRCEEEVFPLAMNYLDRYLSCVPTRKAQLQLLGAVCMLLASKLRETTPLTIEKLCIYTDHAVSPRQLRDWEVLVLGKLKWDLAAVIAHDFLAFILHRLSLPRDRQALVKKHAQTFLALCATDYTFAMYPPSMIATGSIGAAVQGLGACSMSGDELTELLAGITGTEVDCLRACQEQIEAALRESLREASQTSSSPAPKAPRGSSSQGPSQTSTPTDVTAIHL

CDK7/cyclinH/MAT1(h) = CDK7/cyclinH/MAT1(h) (Homo sapiens, UniProt P50613); details: 100 μM
EGFR(h) = EGFR(h) (Homo sapiens, UniProt P00533); details: 100 μM
MEK1(h) = MEK1(h) (Homo sapiens, UniProt Q02750); details: 100 μM
Ron(h) = Ron(h) (Homo sapiens, UniProt Q04912); details: 100 μM
NEK7(h) = NEK7(h) (Homo sapiens, UniProt Q8TDX7); details: 100 μM
Sequence of NEK7(h) (Q8TDX7 whole entry): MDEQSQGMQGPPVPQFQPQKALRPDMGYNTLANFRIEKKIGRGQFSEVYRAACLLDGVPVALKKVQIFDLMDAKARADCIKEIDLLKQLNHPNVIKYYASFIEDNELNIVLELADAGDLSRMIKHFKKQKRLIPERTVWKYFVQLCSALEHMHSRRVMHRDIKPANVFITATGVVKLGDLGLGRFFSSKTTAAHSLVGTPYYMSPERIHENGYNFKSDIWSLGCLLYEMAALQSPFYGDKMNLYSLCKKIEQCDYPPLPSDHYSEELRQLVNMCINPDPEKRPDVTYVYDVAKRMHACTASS

SGK2(h) = molecular target: T3, SGK2(h) (Homo sapiens, UniProt Q9HBY8); details: 100 μM
T3 sequence (Q9HBY8 1-367): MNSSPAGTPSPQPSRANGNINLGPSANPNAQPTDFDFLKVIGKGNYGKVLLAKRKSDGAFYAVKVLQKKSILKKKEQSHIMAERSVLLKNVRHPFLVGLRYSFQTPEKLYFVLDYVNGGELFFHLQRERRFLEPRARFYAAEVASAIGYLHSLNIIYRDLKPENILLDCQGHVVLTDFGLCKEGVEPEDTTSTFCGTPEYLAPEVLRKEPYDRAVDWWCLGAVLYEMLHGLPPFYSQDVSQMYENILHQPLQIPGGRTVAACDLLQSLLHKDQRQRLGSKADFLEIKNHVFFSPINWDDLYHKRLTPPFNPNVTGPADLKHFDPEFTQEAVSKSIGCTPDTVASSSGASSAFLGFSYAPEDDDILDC

GSK3α(h) = GSK3α(h) (Homo sapiens, UniProt P49840); details: 100 μM
CaMKI(h) = CaMKI(h) (Homo sapiens, UniProt Q14012); details: 100 μM
Sequence of CaMKI(h) (Q14012 whole entry): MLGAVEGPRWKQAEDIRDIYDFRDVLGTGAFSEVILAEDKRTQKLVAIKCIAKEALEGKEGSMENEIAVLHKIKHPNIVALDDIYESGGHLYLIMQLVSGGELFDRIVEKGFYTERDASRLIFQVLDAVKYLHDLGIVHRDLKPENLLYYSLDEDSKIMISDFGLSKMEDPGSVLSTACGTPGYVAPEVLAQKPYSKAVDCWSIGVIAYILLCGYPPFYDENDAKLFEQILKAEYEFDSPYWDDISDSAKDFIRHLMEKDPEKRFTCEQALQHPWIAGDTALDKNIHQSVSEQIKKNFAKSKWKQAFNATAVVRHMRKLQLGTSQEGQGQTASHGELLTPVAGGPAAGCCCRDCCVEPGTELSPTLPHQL

VRK2(h) = VRK2(h) (Homo sapiens, UniProt Q86Y07); details: 100 μM
Lck(h) = Lck(h) (Homo sapiens, UniProt P06239); details: 100 μM
Rsk3(h) = Rsk3(h) (Homo sapiens, UniProt Q15349); details: 100 μM
Aurora-B(h) = Aurora-B(h) (Homo sapiens, UniProt Q96GD4); details: 100 μM
GSK3β(h) = GSK3β(h) (Homo sapiens, UniProt P49841); details: 100 μM
Sequence of GSK3β(h) (P49841 whole entry): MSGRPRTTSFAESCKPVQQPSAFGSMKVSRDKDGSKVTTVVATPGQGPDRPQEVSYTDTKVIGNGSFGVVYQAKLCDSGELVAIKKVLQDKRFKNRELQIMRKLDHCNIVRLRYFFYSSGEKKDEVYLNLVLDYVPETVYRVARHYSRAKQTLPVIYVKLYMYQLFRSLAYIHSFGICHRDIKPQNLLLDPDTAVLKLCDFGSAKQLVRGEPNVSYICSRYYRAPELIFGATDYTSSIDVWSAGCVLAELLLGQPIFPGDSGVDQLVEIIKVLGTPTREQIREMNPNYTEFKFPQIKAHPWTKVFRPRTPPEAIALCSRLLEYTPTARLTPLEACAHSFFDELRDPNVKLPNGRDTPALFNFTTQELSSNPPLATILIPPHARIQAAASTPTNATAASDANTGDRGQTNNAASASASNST

ROCK-I(h) = ROCK-I(h) (Homo sapiens, UniProt Q13464); details: 100 μM
ROCK-II(h) = ROCK-II(h) (Homo sapiens, UniProt O75116); details: 100 μM
Sequence of ROCK-II(h) (O75116 whole entry): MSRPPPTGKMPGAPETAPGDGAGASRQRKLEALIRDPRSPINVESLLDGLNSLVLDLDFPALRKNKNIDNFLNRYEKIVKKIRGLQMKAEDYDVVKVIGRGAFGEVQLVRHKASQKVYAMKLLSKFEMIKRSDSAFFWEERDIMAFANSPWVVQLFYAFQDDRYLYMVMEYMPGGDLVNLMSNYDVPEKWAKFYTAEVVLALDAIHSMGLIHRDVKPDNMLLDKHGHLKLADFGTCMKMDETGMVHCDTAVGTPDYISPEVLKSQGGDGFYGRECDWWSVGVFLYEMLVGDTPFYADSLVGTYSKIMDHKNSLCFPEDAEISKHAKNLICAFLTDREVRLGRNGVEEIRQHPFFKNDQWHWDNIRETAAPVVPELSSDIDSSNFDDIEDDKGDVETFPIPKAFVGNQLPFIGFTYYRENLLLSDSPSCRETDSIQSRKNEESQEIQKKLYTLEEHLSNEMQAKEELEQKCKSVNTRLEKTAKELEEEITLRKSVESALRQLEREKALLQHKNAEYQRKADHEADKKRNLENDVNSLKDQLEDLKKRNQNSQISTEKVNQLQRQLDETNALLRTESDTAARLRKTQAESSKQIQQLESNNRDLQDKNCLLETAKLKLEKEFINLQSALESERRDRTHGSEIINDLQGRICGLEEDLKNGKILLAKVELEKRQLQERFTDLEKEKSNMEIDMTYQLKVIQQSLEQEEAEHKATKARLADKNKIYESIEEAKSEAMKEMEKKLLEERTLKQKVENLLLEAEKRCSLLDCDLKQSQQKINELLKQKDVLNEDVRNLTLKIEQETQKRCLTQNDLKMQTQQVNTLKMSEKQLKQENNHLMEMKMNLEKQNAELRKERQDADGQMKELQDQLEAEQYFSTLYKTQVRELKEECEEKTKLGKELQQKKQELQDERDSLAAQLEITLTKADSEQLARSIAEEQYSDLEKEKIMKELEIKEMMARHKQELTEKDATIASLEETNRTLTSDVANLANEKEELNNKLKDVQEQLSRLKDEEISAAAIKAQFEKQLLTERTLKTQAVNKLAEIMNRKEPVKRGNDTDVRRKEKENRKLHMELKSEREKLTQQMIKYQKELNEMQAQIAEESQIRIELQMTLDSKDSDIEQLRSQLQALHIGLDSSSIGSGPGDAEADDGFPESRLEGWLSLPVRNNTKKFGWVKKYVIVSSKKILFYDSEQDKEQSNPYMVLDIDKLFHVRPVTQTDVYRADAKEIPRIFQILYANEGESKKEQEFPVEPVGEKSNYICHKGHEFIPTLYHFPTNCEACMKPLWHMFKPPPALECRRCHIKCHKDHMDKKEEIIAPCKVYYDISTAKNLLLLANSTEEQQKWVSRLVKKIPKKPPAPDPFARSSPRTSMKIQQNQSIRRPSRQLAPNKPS

MST3(h) = MST3(h) (Homo sapiens, UniProt Q9Y6E0); details: 100 μM
CK1γ3(h) = CK1γ3(h) (Homo sapiens, UniProt Q9Y6M4); details: 100 μM

Row | Substance | % activity (SAPK3(h)) | % activity (Hck(h) activated) | % activity (CDK5/p25(h)) | % activity (FAK(h)) | % activity (CDK6/cyclinD3(h)) | % activity (CDK7/cyclinH/MAT1(h)) | % activity (EGFR(h)) | % activity (Ron(h)) | % activity (NEK7(h)) | % activity (CaMKI(h)) | % activity (Aurora-B(h)) | % activity (GSK3β(h)) | % activity (ROCK-II(h)) | % activity (MST3(h)) | other results
1 | H-YARAAARQARAKALARQLGVAA-OH [MMI-0100] | – | – | – | – | – | – | – | – | – | – | – | – | – | – | activity at 100 µM (Flt4(h)): 135%; activity at 100 µM (FGFR2(N549H)(h)): 95%; activity at 100 µM (MST2(h)): 98%; activity at 100 µM (Snk(h)): 94%
2 | HRRIKAWLKKIKALARQLGVAA (Mammalian) [MMI-0500] | 24% | 67% | 66% | 94% | 23% | 15% | -1% | 46% | 89% | -1% | 5% | 238% | 2% | 4% | % activity (Flt4(h); 100 μM): 73%; % activity (MEK1(h)): 21%; % activity (SGK2(h)): -1%; % activity (GSK3α(h)): 175%; % activity (VRK2(h)): 169%; % activity (Lck(h)): 359%; % activity (MST2(h); 100 μM): 2%; % activity (Rsk3(h)): 23%; % activity (Snk(h); 100 μM): 122%; % activity (ROCK-I(h)): 17%
3 | YARAAARQARAKALNRQLGVA (Mammalian) [MMI-0200] | 97% | 100% | 97% | 110% | 100% | 67% | 83% | 120% | 96% | 21% | 166% | 132% | 85% | 95% | % activity (CK1γ3(h)): 96%
